{"source": "patent US20110009597A1", "about": "“RECOMBINANT GANODERMA LUCIDIUM IMMUNOMODULATORY PROTEIN (rLZ-8) AND USES THEREOF” (priority 2008, published 2011)", "molecules": {"B1": {"name": "rLZ-8: Recombinant Ganoderma Lucidum Immune Regulatory Protein expressed in Pichia pastoris (protein, UniProt P14945 2-111, looked up)", "Immunomodulatory protein Ling …": "SDTALIFRLAWDVKKLSFDYTPNWGRGNPNNFIDTVTFPKVLTDKAYTYRVAVSGRNLGVKPSYAVESDGSQKVNFLEYNSGYGIADTNTIQVFVVDPDTNNDFIIAQWN"}}, "key": {"[1]": {"system": "human red blood cells (A, B, O and AB blood type)", "assay": "Red blood cell agglutination, human", "format": "cell-based", "description": "A, B, O and AB blood type, from the healthy volunteers 2 ml respectively, SRBC (sheep red cell) 2 ml. Centrifuge the above RBC 1200 g·min^−1 for 10 min, clears the supernatant and wash with 5 ml PBS, repeat the above operation 3-5 times, and then uses 0.01 mol/L PBS suspension preparation of 1.5%. Prepare rLZ-8 with normal saline to final concentrations of 50 μg·ml^−1, 25 μg·ml^−1, 12.5 μg·ml^−1, 6.25 μg·ml^−1, 1.56 μg·ml^−1, 0.78 μg·ml^−1, 0.39 μg·ml^−1, 0.20 μg·ml^−1, 0.10 μg·ml^−1, 0.05 μg·ml^−1, 0.03 μg·ml^−1. Plant agglutinin (PHA) preparation Ibid.\nDivide experiment subjects into rLZ-8 concentration groups, positive drug control, and normal control group.\nOn 96-orifice Hemagglutination board, we add A-type 1.5%, erythrocyte 25 μl/hole, and then add 0.2% gelatin, 75 μl/hole. Drug groups are added different concentrations of rLZ-8, till the final concentration as above-noted; positive drug control group PHA 25 μl/hole; normal control group PBS25μl/hole. 6 parallel control groups in each group. Shaking for 30 s under normal room temperature, 37° C. incubation, observe the subjects 1 h later. For B-type, AB-type, O-type, the same experiment methods are as SRBC (sheep red cell) above."}, "NB4": {"system": "NB4", "assay": "Annexin V-FITC flow cytometry, apoptosis of NB4", "format": "cell-based", "conditions": "Annexin V/PI", "description": "FACS Calibur flow cytometry, U.S. Becton-Dickinson.Coompany. NB4, HL-60. rLZ-8 is prepared with IMDM culture medium containing 2% FCS into the preparation of 0.1 μg·ml^−1, 0.5 μg·ml^−1, 2.5 μg·ml^−1, arsenic trioxide (As2O3) 0.5 μg·ml^−1 AnnexinV-FITC kit: combining buffer solution 4×; Propidium iodide solution (PI), 20 μg·ml−1, 0.2 ml; recombinant human Annexin V/FITC, 0.1 ml.\nEstablish NB4 normal control group, positive drug group (As2O3 0.5 μg·ml^−1), protein low-dose group (0.1 μg·ml^−1), medium-dose group (0.5 μg·ml^−1), high-dose group, (2.5 μg·ml^−1); establish HL-60 normal control group, protein low-dose group (0.1 μg·ml^−1), medium-dose group (0.5 μg·ml^−1), high-dose group, (2.5 μg·ml^−1).\nMix NB4 and HL-60 cell into 24-orifice plate respectively, 1 ml/hole supply rLZ-8 in different concentrates, set 3-orifice multipunches for each group. Put them in 37° C., 5% CO2 incubator for 24 h, collect the cells of each concentrate, washes the cells twice with pre-cooled PBS 4° C., with 250 μl binding buffer solution re-suspending cells and regulates the cell density to 1×10^6/ml, taking out 100 μl to 5 ml streaming tube, and add 5 μl Annexin V/FITC and 10 μl 20 μg·ml^−1 PI solution, after mixing put it in room temperature and lucifuged hatching 15 min, add 400 μl PBS by flow cytometry analysis."}, "[2]": {"system": "Mouse hepatoma cell strain H22", "assay": "H22 subcutaneous tumor inhibition experiment", "format": "in vivo, Mice", "conditions": "10 days", "description": "Mice, weight 18-22g, males and females were divided equally, from Jilin University Laboratory Animal Center. Mouse hepatoma cell strain H22, offered by our laboratory. Cyclophosphamide (CTX), offered by Jiangsu Hengrui Medicine Co., Ltd., lot number: 06101921.\nH22 hepatoma cells experiment group were divided into normal control group, negative control group, positive control group, rLZ-8 low-dose treatment group (0.25 mg·kg^−1), rLZ-8 medium-dose treatment group (0.5 mg·kg^−1), rLZ-8 high-dose treatment group (1 mg·kg^−1). For each group 10 mice.\nH22 subcutaneous tumor tumor inhibition experiment methods: Select well-growing 1-122 cells, dilute appropriately with sterile saline into a tumor cell suspension, cell counts for 10^7·L^−1, under the right armpit of each mouse inoculated subcutaneously 0.2 ml (except for the normal control group). Treatment after 24 h of vaccination. Normal control group and negative control group were given saline 0.2 ml·each^−1·d^−1, intraperitoneal injection; positive control group were given cyclophosphamide 20 mg·kg^−1, 0.2 ml·each^−1·d^−1, intraperitoneal injection. rLZ-8 treatment groups were given doses of tail venous injection respectively, 0.2 ml·each^−1·d^−1, in 10 consecutive days. Draw blood from orbital venous plexus 10 days before and after medication respectively, sent to Jilin University No. 1 Hospital clinical laboratory to test and analyze the number of WBC. Kill all the mice the next day of drug withdrawal at cervical dislocation, dissected anatomically and took out the tumors, weigh tumors, calculated the inhibition rate using the following equation:\nInhibition rate (%)=(average tumore weight of the control group−average tumor weight of the experiment group)/average tumor weight of the control group×100%"}, "[3]": {"system": "Human Promyelocytic Leukemia NB4 Cells", "assay": "Killing effect of rLZ-8 on NB4 cells (MTT, OD570nm)", "format": "cell-based", "description": "After filtration and degerming, we prepared 8 concentrations using IMDM culture medium which are respectively 0.78 μg·ml^−1, 1.56 μg·ml^−1, 3.125 μg·ml^−1, 6.25 μg·ml^−1, 12.5 μg·ml^−1, 25 μg·ml^−1, 50 μg·ml^−1, 100 μg·ml^−1.\nOn 96-orifice culture medium plate, the pilot orifice plus NB4 tumor cells 0.1 ml and rLZ-8 0.1 ml, rLZ-8 concentrates from low to high; negative control group plus NB4 tumor cells and culture medium of 0.1 ml respectively; positive drug control group arsenic trioxide As2O3; make six-aperture multipunches for each group. Placing in 37° C., 5% CO2 incubator 48 h, adding MTT15 μl (5 mg ml^−1) prior to the termination of 4 h, after the termination of cell culture by adding 100 μl 0.1 mol L^−1 hydrochloric acid isopropyl alcohol, testing on the enzyme-linked immunosorbent OD570nm values."}, "[4]": {"conditions": "rLZ-8 0.25 mg·kg^−1 tail venous injection"}, "[5]": {"conditions": "rLZ-8 0.5 mg·kg^−1 tail venous injection"}, "[6]": {"conditions": "rLZ-8 1 mg·kg^−1 tail venous injection"}}}
{"molecule": "B1", "values": [{"measurement": "agglutination of four types of human red blood cells (in words)", "setting": "[1]", "value": "not agglutinative"}, {"measurement": "Apoptosis rate", "setting": "NB4; NB4, rLZ-8 0.1 μg·ml−1, 24 h", "value": 21.0, "unit": "%"}, {"measurement": "Apoptosis rate", "setting": "NB4; NB4, rLZ-8 0.5 μg·ml−1, 24 h", "value": 22.3, "unit": "%"}, {"measurement": "Apoptosis rate", "setting": "NB4; NB4, rLZ-8 2.5 μg·ml−1, 24 h", "value": 34.0, "unit": "%"}, {"measurement": "Inhibition rate (%)", "setting": "[2]; [4]", "value": 16.7, "unit": "%"}, {"measurement": "Tumor weight", "setting": "[2]; [4]", "value": "1.00 ± 0.03", "unit": "g"}, {"measurement": "Inhibition rate (%)", "setting": "[2]; [5]", "value": 30.0, "unit": "%"}, {"measurement": "Tumor weight", "setting": "[2]; [5]", "value": "0.84 ± 0.02", "unit": "g"}, {"measurement": "Inhibition rate (%)", "setting": "[2]; [6]", "value": 42.5, "unit": "%"}, {"measurement": "Tumor weight", "setting": "[2]; [6]", "value": "0.69 ± 0.03", "unit": "g"}, {"measurement": "lethal effect in vitro on NB4 tumor cells (in words)", "setting": "[3]; 0.78-100 μg·ml^−1", "value": "strong lethal effect"}, {"measurement": "Growth inhibition rate (%)", "setting": "[3]; rLZ-8 0.78 μg ml^−1, 48 h", "value": 39, "unit": "%"}, {"measurement": "OD570 nm", "setting": "[3]; rLZ-8 0.78 μg ml^−1, 48 h", "value": "0.71 ± 0.03"}, {"measurement": "Growth inhibition rate (%)", "setting": "[3]; rLZ-8 1.56 μg ml^−1, 48 h", "value": 44, "unit": "%"}, {"measurement": "OD570 nm", "setting": "[3]; rLZ-8 1.56 μg ml^−1, 48 h", "value": "0.65 ± 0.05"}, {"measurement": "Growth inhibition rate (%)", "setting": "[3]; rLZ-8 3.125 μg ml^−1, 48 h", "value": 54, "unit": "%"}, {"measurement": "OD570 nm", "setting": "[3]; rLZ-8 3.125 μg ml^−1, 48 h", "value": "0.53 ± 0.04"}, {"measurement": "Growth inhibition rate (%)", "setting": "[3]; rLZ-8 6.25 μg ml^−1, 48 h", "value": 61, "unit": "%"}, {"measurement": "OD570 nm", "setting": "[3]; rLZ-8 6.25 μg ml^−1, 48 h", "value": "0.45 ± 0.02"}, {"measurement": "Growth inhibition rate (%)", "setting": "[3]; rLZ-8 12.5 μg ml^−1, 48 h", "value": 74, "unit": "%"}, {"measurement": "OD570 nm", "setting": "[3]; rLZ-8 12.5 μg ml^−1, 48 h", "value": "0.30 ± 0.04"}, {"measurement": "Growth inhibition rate (%)", "setting": "[3]; rLZ-8 25 μg ml^−1, 48 h", "value": 81, "unit": "%"}, {"measurement": "OD570 nm", "setting": "[3]; rLZ-8 25 μg ml^−1, 48 h", "value": "0.22 ± 0.01"}, {"measurement": "Growth inhibition rate (%)", "setting": "[3]; rLZ-8 50 μg ml^−1, 48 h", "value": 91, "unit": "%"}, {"measurement": "OD570 nm", "setting": "[3]; rLZ-8 50 μg ml^−1, 48 h", "value": "0.11 ± 0.01"}, {"measurement": "Growth inhibition rate (%)", "setting": "[3]; rLZ-8 100 μg ml^−1, 48 h", "value": 93, "unit": "%"}, {"measurement": "OD570 nm", "setting": "[3]; rLZ-8 100 μg ml^−1, 48 h", "value": "0.08 ± 0.01"}]}
